Experimental findings from US20060051363A1, “Protein inducing cell death of helicobacter pylori” (JAPAN SCIENCE AND TECHNOLOGY AGENCY, priority 2002, published 2006) are described below.

Data set [1] concerns the target T1, subunit 2 of the apoptosis-inducing protein from Helicobacter pylori (amino acids 380-567 of the protein … (Helicobacter pylori strain 26695)).
T1 construct: Purified from the membrane fraction of H. pylori strain 26695; this follows from the lengths; also called about 22 kDa band
T1 chain: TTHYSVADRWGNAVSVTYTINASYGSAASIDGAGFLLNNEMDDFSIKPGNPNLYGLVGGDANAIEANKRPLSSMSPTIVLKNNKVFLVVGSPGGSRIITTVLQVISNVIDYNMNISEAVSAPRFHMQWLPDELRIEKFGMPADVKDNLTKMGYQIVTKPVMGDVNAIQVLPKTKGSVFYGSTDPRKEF
Put plainly: native PAGE under acid condition (single band), then 2D SDS-PAGE (two bands, about 40 kDa and 22 kDa).

Data set [2] has as its system human gastric adenocarcinoma cell line AGS. As to the kind of experiment: cytotoxic effect assayed using WST-1 kit in AGS cells. The class given is cell-based. Conditions: FIG. 7. The procedure:
In this example, the apoptosis-inducing activity was measured as the cytotoxic activity in human gastric adenocarcinoma cell line AGS (ATCC CRL 1739) using Quick Cell Proliferation Assay Kit (Cat.BV-K301-10) (BioVision). The cell viability (surviving cell), from which an apoptosis-inducing activity is calculated, is based on the activity of intracellular mitochondrial dehydrogenase activity as a marker enzyme and is measured by the absorbance at 450 nm after 1 hr incubation at 37° C. with the substrate of the enzyme. The absorbance indicates the cell viability. The more cytotoxic, the less the absorbance is according to the mesurement.
(§1) In this example, the apoptosis-inducing activity of the protein purified in example 1 was examined in human gastric adenocarcinoma cell line AGS (ATCC CRL 1739), in human gastric carcinoma cell line KATO III (Human Science Research Resources Bank, Cat No. JCRB0611 (ATCC, HTB-103)) and in human uterine cervix cancer-derived HeLa cell (Human Science Research Resources Bank, Cat No. JCRB9004).
(§2) The cytotoxic effect was assayed using WST-1 kit (Roche Diagnotics).

Data set [3] deals with human gastric carcinoma cell line KATO III. As to the kind of experiment: cytotoxic effect assayed using WST-1 kit in KATO III cells. It is filed as cell-based. Conditions: FIG. 8. The protocol:
as §1, §2
A general note: Tetrazolium assays rely on reduction of a dye to a coloured formazan, in cell work by metabolically active cells.

The test system of data set [4] is human uterine cervix cancer-derived HeLa cell. Put plainly: cytotoxic effect assayed using WST-1 kit in HeLa cells. Particulars: FIG. 7. It is filed as cell-based. The procedure: as §1, §2
Data set [5] relates to AGS cells. As to the kind of experiment: induction of apoptosis in AGS cells (Hoechst 33342 nuclear staining, fluorescence microscopy). It is filed as cell-based, human. Particulars: Hoechst 33342 staining, FIG. 9. The source says: Also, the induction of apoptosis in AGS cells by the protein was examined: Trypsinized apoptotic and control cells were collected and stained with a fluorescent dye (Hoechst 33342), which stains cellular nuclei. Since the nuclei of apoptotic cells are highly condensed and fragmented, apoptotic cells are easily differentiated from control cells under fluorescence microscopy. Cells were put on a slide glass, the number of apoptotic cells and control cells were counted and the percentage of apoptotic cells in total cells was enumerated. At least total 500 cells were counted for each experiment.

B1: subunit 1 of the apoptosis-inducing protein from Helicobacter pylori (amino acids 27-379 of the protein encoded by the HP1118 gamma-glutamyl transferase gene) (enzyme)
chain: ASYPPIKNTKVGLALSSHPLASEIGQKVLEEGGNAIDAAVAIGFALAVVHPAAGNIGGGGFAVIHLANGENVALDFREKAPLKATKNMFLDKQGNVVPKLSEDGYLAAGVPGTVAGMEAMLKKYGTKKLSQLIDPAIKLAENGYAISQRQAETLKEARERFLKYSSSKKYFFKKGHLDYQEGDLFVQKDLAKTLNQIKTLGAKGFYQGQVAELIEKDMKKNGGIITKEDLASYNVKWRKPVVGSYRGYKIISMSPPSSGGTHLIQILNVMENADLSALGYGASKNIHIAAEAMRQAYADRSVYMGDADFVSVPVDKLINKAYAKKIFDTIQPDTVTPSSQIKPGMGQLHEGSN
notes: Purified from the membrane fraction of H. pylori strain 26695; this follows from the lengths; also called about 40 kDa band
As to B1, in data set [1], the binding result is “binds”.

B2: protein purified in example 1: Helicobacter pylori protein complex of two subunits (SEQ ID NO: 1 and 2; about 40 kDa and 22 kDa) encoded by the HP1118 gene (protein)
chain 1: ASYPPIKNTKVGLALSSHPLASEIGQKVLEEGGNAIDAAVAIGFALAVVHPAAGNIGGGGFAVIHLANGENVALDFREKAPLKATKNMFLDKQGNVVPKLSEDGYLAAGVPGTVAGMEAMLKKYGTKKLSQLIDPAIKLAENGYAISQRQAETLKEARERFLKYSSSKKYFFKKGHLDYQEGDLFVQKDLAKTLNQIKTLGAKGFYQGQVAELIEKDMKKNGGIITKEDLASYNVKWRKPVVGSYRGYKIISMSPPSSGGTHLIQILNVMENADLSALGYGASKNIHIAAEAMRQAYADRSVYMGDADFVSVPVDKLINKAYAKKIFDTIQPDTVTPSSQIKPGMGQLHEGSN
chain 2: TTHYSVADRWGNAVSVTYTINASYGSAASIDGAGFLLNNEMDDFSIKPGNPNLYGLVGGDANAIEANKRPLSSMSPTIVLKNNKVFLVVGSPGGSRIITTVLQVISNVIDYNMNISEAVSAPRFHMQWLPDELRIEKFGMPADVKDNLTKMGYQIVTKPVMGDVNAIQVLPKTKGSVFYGSTDPRKEF
modifications: Helicobacter Pylori
notes: about 40 kDa and 22 kDa) encoded by the HP1118 gene
B2: the cytotoxic activity entry in data set [2], in data set [3] and in data set [4] was “has the cytotoxic activity” in each case. For the same molecule, the “induction of apoptosis (percentage of apoptotic cells in total cells)” value in data set [5] was “mainly ascribed to apoptosis”.
